From article PMC13036090 come the findings set out here.

Series [1] can be described thus: steady-state kinetics, Michaelis-Menten fit. To be noted: glycan lost; control: WT UGDH from HEK293T.
The nature of series [2]: NADH OD340 assay, Flag-purified protein. To be noted: glycan lost; control: WT UGDH from HEK293T.
The nature of series [3]: HABP immunofluorescence and competitive ELISA. To be noted: glycan lost; control: UGDH-KO A549 rescued with WT UGDH. For orientation: ELISA stands for enzyme-linked immunosorbent assay.
Series [4] can be described thus: Flag-KPNA2 pull-down, HEK293T, IFNγ. To be noted: glycan lost; control: cells expressing UGDH WT.
Series [5] is described as follows: NADH OD340 assay, Flag-purified from HEK293T. Conditions: glycan gained; control: WT UGDH, no OGT co-expression or TMG.

B1: UGDH (uridine diphosphate glucose dehydrogenase): S350A (protein)
parent chain: MFEIKKICCIGAGYVGGPTCSVIAHMCPEIRVTVVDVNESRINAWNSPTLPIYEPGLKEVVESCRGKNLFFSTNIDDAIKEADLVFISVNTPTKTYGMGKGRAADLKYIEACARRIVQNSNGYKIVTEKSTVPVRAAESIRRIFDANTKPNLNLQVLSNPEFLAEGTAIKDLKNPDRVLIGGDETPEGQRAVQALCAVYEHWVPREKILTTNTWSSELSKLAANAFLAQRISSINSISALCEATGADVEEVATAIGMDQRIGNKFLKASVGFGGSCFQKDVLNLVYLCEALNLPEVARYWQQVIDMNDYQRRRFASRIIDSLFNTVTDKKIAILGFAFKKDTGDTRESSSIYISKYLMDEGAHLHIYDPKVPREQIVVDLSHPGVSEDDQVSRLVTISKDPYEACDGAHAVVICTEWDMFKELDYERIHKKMLKPAFIFDGRRVLDGLHNELQTIGFQIETIGKKVSSKRIPYAPSGEIPKFSLQDPPNKKPKV
Turning to B1, the “enzymatic_activity, kcat_Km” value in series [1] is “decreases, 0.576 vs 5.07, Km value of 37.7 μM for the S350A, which was 3-fold higher than that of the WT with a Km value of 11.4 μM”. Moreover, the enzymatic_activity entry in series [2] is “decreases”. In addition, the “other: cellular hyaluronic acid level” value in series [3] is reported as “decreases”. Also, in series [4], the “other: KPNA2-STAT1 association in cells” value is reported as “increases”.

B2: UGDH (uridine diphosphate glucose dehydrogenase): OGT co-expression (protein)
parent chain: B1 parent chain
As for B2, the enzymatic_activity result in series [5] was “increases”.

B3: UGDH (uridine diphosphate glucose dehydrogenase): TMG (50 μM) (protein)
parent chain: B1 parent chain
For B3, in series [5], the enzymatic_activity result was “increases”.
